Reference: patent publication US9441262B2, “MASP-2, a complement fixing enzyme, and uses for it” (Helion Biotech ApS, priority 1997, dated 2016)

System: C4
Test: C4 converting activity on Western blot of MBL/MASP preparation (C4b deposition from human serum)
Assay type: biochemical
Conditions: blot incubated with human serum at 37° C., detection with anti-C4 antibody
Protocol: The C4 activating potentials of MASP-1 and MASP-2, and Clr and Cls, were compared. This was accomplished by separating a C1 preparation and an MBL/MASP preparation by SDS-PAGE followed by Western blotting. The blot was examined for C4 converting activity by incubation with human serum at 37° C., followed by detection of deposited C4b using anti-C4 antibodies.
C1 was purified by incubating IgG-coupled Sepharose beads with human serum at 4° C. The beads were washed and incubated at 37° C. for 30 minutes for activation of Clr and Cls. The beads were suspended in non-reducing sample buffer and, without boiling, subjected to SDS-PAGE, followed by blotting in the absence of SDS. A similar blot was made of an MBL preparation produced in the absence of enzyme inhibitors (The State Serum Institute, Copenhagen). Strips of the blots were incubated for 30 minutes at 37° C. with 1.10 (v/v) human MBL-deficient serum, depleted of Clq by fractionation on Biorex 70. The blots were developed with biotinylated F(ab)2 anti-C4 antibody followed by peroxidase-labelled streptavidin and luminescence reagent. Parallel blots were treated with a serine protease inhibitor (aminoethylbenzenesulfonyl fluoride), which was also present during incubation with serum. Other strips were directly developed with antibodies.

B1: MASP-2: mannan-binding lectin associated serine protease-2, polypeptide of SEQ ID NO:2 (protein, listed as Homo sapiens)
chain: MRLLTLLGLLCGSVATPLGPKWPEPVFGRLASPGFPGEYANDQERRWTLTAPPGYRLRLYFTHFDLELSHLCEYDFVKLSSGAKVLATLCGQESTDTERAPGKDTFYSLGSSLDITFRSDYSNEKPFTGFEAFYAAEDIDECQVAPGEAPTCDHHCHNHLGGFYCSCRAGYVLHRNKRTCSALCSGQVFTQRSGELSSPEYPRPYPKLSSCTYSISLEEGFSVILDFVESFDVETHPETLCPYEFLKIQTDREEHGPFCGKTLPHRIETKSNTVTITFVTDESGDHTGWKIHYTSTAQPCPYPMAPPNGHVSPVQAKYILKDSFSIFCETGYELLQGHLPLKSFTAVCQKDGSWDRPMPACSIVDCGPPDDLPSGRVEYITGPGVTTYKAVIQYSCEETFYTMKVNDGKYVCEADGFWTSSKGEKSLPVCEPVCGLSARTTGGRIYGGQKAKPGDFPWQVLILGGTTAAGALLYDNWVLTAAHAVYEQKHDASALDIRMGTLKRLSPHYTQAWSEAVFIHEGYTHDAGFDNDIALIKLNNKVVINSNITPICLPRKEAESFMRTDDIGTASGWGLTQRGFLARNLMYVDIPIVDHQKCTAAYEKPPYPRGSVTANMLCAGLESGGKDSCRGDSGGALVFLDSETERWFVGGIVSWGSMNCGEAGQYGVYTKVINYIPWIENIISDF
C4 deposition at the position of the band: C4 was deposited

B2: MASP-1: MBP-associated serine protease, similar in structure to Clr and Cls (protein)
chain: HTVELNNMFGQIQSPGYPDSYPSDSEVTWNITVPDGFRIKLYFMHFNLESSYLCEYDYVKVETEDQVLATFCGRETTDTEQTPGQEVVLSPGSFMSITFRSDFSNEERFTGFDAHYMAVDVDECKEREDEELSCDHYCHNYIGGYYCSCRFGYILHTDNRTCRVECSDNLFTQRTGVITSPDFPNPYPKSSECLYTIELEEGFMVNLQFEDIFDIEDHPEVPCPYDYIKIKVGPKVLGPFCGEKAPEPISTQSHSVLILFHSDNSGENRGWRLSYRAAGNEPELQPPVHGKIEPSQAKYFFKDQVLVSCDTGYKVLKDNVEMDTFQIECLKDGTWSNKIPTCKIVDCRAPGELEHGLITFSTRNNLTTYKSEIKYSCQEPYYKMLNNNTGIYTCSAQGVWMNKVLGRSLPTCLPVCGLPKFSRKLMARIFNGRPAQKGTTPWIAMLSHLNGQPFCGGSLLGSSWIVTAAHCLHQSLDPKDPTLRDSDLLSPSDFKIILGKHWRLRSDENEQHLGVKHTTLHPKYDPNTFENDVALVELLESPVLNAFVMPICLPEGPQQEGAMVIVSGWGKQFLQRFPETLMEIEIPIVDHSTCQKAYAPLKKKVTRDMICAGEKEGGKDACSGDSGGPMVTLNRERGQWYLVGTVSWGDDCGKKDRYGVYSYIHHNKDWIQRVTGVRN
C4 deposition at the position of the band: no C4 deposition was observed
